Laboratory results: publication PMC2621343, “Ca^2+ Extrusion by NCX Is Compromised in Olfactory Sensory Neurons of OMP^−/− Mice” (PLoS ONE, 2009)

T1: recombinant rat OMP (olfactory marker protein) (rat, UniProt P08523 1-163)
T1 construct: olfactory marker protein, rat, recombinant
T1 sequence (looked up): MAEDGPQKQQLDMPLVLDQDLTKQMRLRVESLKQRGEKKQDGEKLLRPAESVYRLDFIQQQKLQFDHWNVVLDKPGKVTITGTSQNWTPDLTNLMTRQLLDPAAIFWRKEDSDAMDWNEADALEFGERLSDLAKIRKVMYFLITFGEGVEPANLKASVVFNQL

B1: CaM binding peptide of Bex1 (Bex1 50-75) (peptide)
peptide: RGGRRRFRVRQPIAHYRWDLMQRVGE
notes: Immobilised on a CM5 chip by carbodiimide chemistry; also called Bex1 peptide; Bex1 (50–75) peptide; source: synthetic peptide, HPLC purified
B2: XIP peptide (NCX1 251-271) (peptide)
peptide: RRLLFYKYVYKRYRAGKQRGM
notes: Immobilised on a CM5 chip by carbodiimide chemistry; also called XIP regulatory-peptide of NCX; source: synthetic peptide, HPLC purified

Columns and labels:
Settings in all cases: both partners purified
Bovine calmodulin [1] = target: T2, Bovine calmodulin (bovine, UniProt P62157 1-149); test: SPR; Bex1 (50-75) peptide immobilised on CM5 chip; CaM 31.25, 62.5, 125, 250, 500 nM flowed over; running buffer with 0.1 mM Ca2+; steady-state analysis of equilibrium response, nonlinear 1:1 binding isotherm
T2 construct: calmodulin, bovine, purchased from Sigma; the methods say bovine calmodulin purchased from Sigma; also called CaM; recombinant calmodulin (CaM); source: bought: Sigma

[2] = target: T1, recombinant rat OMP (olfactory marker …); test: SPR; data not shown; peptide immobilised on CM5 chip; OMP flowed over (0-500 nM by the methods), running buffer in the absence or presence of 0.1 mM Ca2+; interaction Ca2+-independent
Bovine calmodulin [3] = target: T2, Bovine calmodulin; test: SPR; XIP peptide immobilised on CM5 chip (about 700 RU, carbodiimide chemistry); CaM 10, 25, 50, 100, 250 nM flowed over; Biacore 3000; running buffer NaCl 150 mM, HEPES 10 mM, CaCl2 0.1 mM, pH 7.4; 5 µl/min for 2 minutes; 1:1 Langmuir binding model

| Binder | Kd (Bovine calmodulin [1]) [nM] | Kd [2] [µM] | Kd (Bovine calmodulin [3]) [nM] |
| --- | --- | --- | --- |
| B1 | 280 | 90 ± 12 | – |
| B2 | – | 0.7 | 20 ± 6 |
